Assay [1] deals with T1, Cynomolgus VE-PTP (Cyno PTP-β) containing first eight FN3 repeats with C-terminal His10 tag (Cyno Beta ½ … (cynomolgus, UniProt P23467 25-817 (human entry))).
T1 construct: Produced in HEK293 cells; it was not cut off; also called Cyno VE-PTP
T1 chain: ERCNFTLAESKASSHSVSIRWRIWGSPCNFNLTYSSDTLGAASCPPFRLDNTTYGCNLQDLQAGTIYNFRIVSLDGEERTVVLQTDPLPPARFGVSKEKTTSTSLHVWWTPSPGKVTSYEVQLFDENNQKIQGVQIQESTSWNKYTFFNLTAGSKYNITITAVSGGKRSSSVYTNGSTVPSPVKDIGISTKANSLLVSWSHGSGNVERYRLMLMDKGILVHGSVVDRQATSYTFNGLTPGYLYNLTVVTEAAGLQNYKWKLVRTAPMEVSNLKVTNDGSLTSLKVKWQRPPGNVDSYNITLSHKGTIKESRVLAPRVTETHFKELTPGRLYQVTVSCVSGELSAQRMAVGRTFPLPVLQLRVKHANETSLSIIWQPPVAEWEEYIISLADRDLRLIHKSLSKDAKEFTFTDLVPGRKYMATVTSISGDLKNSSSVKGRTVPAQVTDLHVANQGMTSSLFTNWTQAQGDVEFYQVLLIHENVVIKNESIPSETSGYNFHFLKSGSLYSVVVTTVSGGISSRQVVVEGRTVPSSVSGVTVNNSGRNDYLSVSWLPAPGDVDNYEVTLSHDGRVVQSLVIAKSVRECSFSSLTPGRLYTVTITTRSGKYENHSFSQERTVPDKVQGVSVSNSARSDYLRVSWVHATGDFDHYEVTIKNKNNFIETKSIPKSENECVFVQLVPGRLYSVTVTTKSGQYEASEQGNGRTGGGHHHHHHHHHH
Description: ELISA, coated antigen. How it is done:
HPTP-β, cyno PTP-β, and HPTP-η proteins were coated onto ELISA plates in coating buffer (pH 9.4). Each protein was prepared as a 1 μg/mL protein stock in 50 mM carbonate-bicarbonate. The coated proteins were aliquoted at a volume of 100 μL/well into sterile, clear, polystyrene, flat bottom 96-well plates. The plates were incubated overnight at 4° C. After overnight incubation, the plates were washed 3× with 200 μL/well of 1×PBS-T (PBS with 0.05% Tween 20). The immunizing protein was human VE-PTP (HPTP-β). The plates were then blocked with 200 μL/well of 5% blotting grade blocker non-fat dry milk in PBS-T and incubated for 1 hr at room temperature.
Primary antibody samples were prepared for the humanized variants and the negative control, anti-hCD20-hIgG4S228P, using 1 μg/well in 5% blotting grade blocker non-fat dry milk in PBS. Samples were tested in triplicates. The Fab antibody fragments were treated as the IgG antibodies. The plates were then washed 3× with PBS-T and 100 μL of primary antibody preparation was added in each well. The plates were then incubated for 1 hr at room temperature.
Then, […] Ultra TMB-ELISA was added in each well, and the plate was allowed to develop for 5 min at room temperature. After 5 min, 50 μL of 2 M sulfuric acid was added to each well to stop the reaction. The plates were then analyzed on a plate reader at an absorbance wavelength of 450 nm.
(In general: In an ELISA, binding on a coated surface is turned into a signal by an enzyme label.)

The target of assay [2] is T2, Human VE-PTP (HPTP-β) containing first eight FN3 repeats with C-terminal His6 tag (Human ½ VE-PTP ECD) (human, UniProt P23467 23-820).
T2 construct: Produced in HEK293 cells and purified by the His tag; it was not cut off; also called Human Beta ½ ECD
T2 sequence: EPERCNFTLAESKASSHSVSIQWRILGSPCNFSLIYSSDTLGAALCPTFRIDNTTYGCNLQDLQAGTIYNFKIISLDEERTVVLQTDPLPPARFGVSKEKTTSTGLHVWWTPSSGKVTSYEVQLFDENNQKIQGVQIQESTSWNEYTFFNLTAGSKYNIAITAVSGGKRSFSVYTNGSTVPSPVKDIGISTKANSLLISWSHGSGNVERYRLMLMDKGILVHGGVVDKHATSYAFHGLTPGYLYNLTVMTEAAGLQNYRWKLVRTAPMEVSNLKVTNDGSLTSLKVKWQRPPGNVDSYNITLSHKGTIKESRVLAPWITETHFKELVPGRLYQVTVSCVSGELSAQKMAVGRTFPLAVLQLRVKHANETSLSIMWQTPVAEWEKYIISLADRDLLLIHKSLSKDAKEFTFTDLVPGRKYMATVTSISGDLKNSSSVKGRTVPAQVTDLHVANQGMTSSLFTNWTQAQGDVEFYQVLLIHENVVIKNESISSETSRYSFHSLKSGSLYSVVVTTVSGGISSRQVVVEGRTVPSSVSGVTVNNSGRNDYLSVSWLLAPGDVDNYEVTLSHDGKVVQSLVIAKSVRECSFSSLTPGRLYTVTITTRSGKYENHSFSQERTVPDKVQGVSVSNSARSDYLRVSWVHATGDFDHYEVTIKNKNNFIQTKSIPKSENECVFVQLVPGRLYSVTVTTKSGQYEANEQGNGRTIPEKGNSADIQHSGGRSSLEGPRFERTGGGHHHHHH
Description: SPR (Biacore 3000), antibody captured on anti-human IgG, antigen as analyte 50-0 nM. How it is done:
(§1) Samples of each variant were further assessed by Biacore analysis to determine the binding affinity. Antibody binding experiments were performed on Biacore 3000™ at 25° C. Assay buffer: 10 mM HEPES buffer (pH 7.4), 150 mM NaCl, 3 mM EDTA, 0.05% P20 (polyoxyethylenesorbitan). […] Conjugation buffer: 10 mM sodium acetate buffer (pH 5). The flow rate used for capturing the ligand was 5 μL/min. The flow rate for the kinetic analysis was 50 μL/min. Flow cell 1 and […] of the CM5 chip were coated with maximum amounts of goat anti-human IgG. Approximately 150 RU of the test antibody was captured on flow cell 2, 3, and 4 as indicated. The antigen was flowed over the chip. Binding of the antigen to the antibodies was monitored in real time. The KD was determined from the observed kₒₙ and koff values.

For assay [3], the target named is T2, Human VE-PTP (HPTP-β) containing first …. Description: SPR (Biacore 3000), antibody captured on anti-human IgG, antigen as analyte 100 nM (single concentration). How it is done:
as §1
A scouting analysis was performed using single analyte concentrations as indicated. At these concentrations, binding can be observed even if the ligand binding is weak. Flow cell 1 response was used for reference subtraction.

Numbering of substitutions follows the chain as printed. In names and notes the source's numbering stands.

The text below walks through data of patent US20190077863A1 (AERPIO PHARMACEUTICALS, published 2019).

B1: mouse/human chimeric antibody HC0LC0 (antibody, human IgG4 S228P, kappa, V domains shown)
VH: EVQLVETGGGLVQPKGSMKLSCAASGFTFNANAMNWIRQAPGKGLEWVARIRTKSNNYATYYAGSVKDRFTISRDDAQNMLYLQMNDLKTEDTAMYYCVRDYYGSSAWITYWGQGTLVTVSA
VL: DIVMTQSHKFMSTSVGDRVSITCKASQHVGTAVAWYQQKPDQSPKQLIYWASTRHTGVPDRFTGSGSGTDFTLTISNVQSEDLADYFCQQYSSYPFTFGSGTKLEIKR
notes: Murine variable domains of R15E6 on human IgG4 (S228P) and kappa constant domains, expressed in CHO cells; also called VH0-VL0
On to B1, for which, in assay [1], the binding result is “no binding (tested: <=0.2; 1 µg/well)”. Besides, in assay [2], the Ka was 3.18e+08 M⁻¹, the Kd worked out at 3.14 nM, the koff amounted to 0.000656 s⁻¹ and the kon was found to be 209000 M⁻¹ s⁻¹. In assay [3], this molecule displayed a Ka of 1.61e+08 M⁻¹, a Kd of 6.22 nM, a koff of 0.000417 s⁻¹ and a kon of 67100 M⁻¹ s⁻¹.

B2: humanized R15E6 variant HC2LC1 (antibody, human IgG4 S228P, kappa, V domains shown)
VH: EVQLVESGGGLVQPGGSLRLSCAASGFTFNANAMNWVRQAPGKGLEWVGRIRTKSNNYATYYAGSVKDRFTISRDDSKNSLYLQMNSLKTEDTAVYYCVRDYYGSSAWITYWGQGTLVTVSS
VL: DVVMTQSPSFLSASVGDRVTITCKASQHVGTAVAWYQQRPGKAPKLLIYWASTRHTGVPSRFSGSGSGTEFTLTISSLQPEDFATYFCQQYSSYPFTFGGGTKLEIKR
notes: Human IgG4 (S228P) / kappa, expressed in CHO cells; Signal peptides left out by range; also called VH2-VL1
With B2, the binding result in assay [1] was “no binding (tested: <=0.2; 1 µg/well)”. In assay [2], this molecule returned a Ka of 1.5e+10 M⁻¹, a Kd of 0.0668 nM, a koff of 7.23e-05 s⁻¹ and a kon of 1.08e+06 M⁻¹ s⁻¹. Moreover, in assay [3], the Ka worked out at 7.24e+07 M⁻¹, the dissociation constant Kd is 13.8 nM, the koff is 0.000688 s⁻¹ and the kon is 49800 M⁻¹ s⁻¹.

B3: humanized R15E6 variant HC2LC2 (antibody, human IgG4 S228P, kappa, V domains shown)
VH: B2 VH
VL: DIVMTQSPDSLAVSLGERATINCKASQHVGTAVAWYQQKPGQPPKLLIYWASTRHTGVPDRFSGSGSGTDFTLTISSLQAEDVAVYYCQQYSSYPFTFGQGTKLEIKR
notes: Human IgG4 (S228P) / kappa, expressed in CHO cells; Signal peptides left out by range; also called VH2-VL2
Take B3: the binding result in assay [1] is “no binding (tested: <=0.2; 1 µg/well)”. In assay [3], this molecule had a Ka of 2.85e+08 M⁻¹, a Kd of 3.51 nM, a koff of 0.000524 s⁻¹ and a kon of 149000 M⁻¹ s⁻¹.

B4: humanized R15E6 variant HC1LC4 (antibody, human IgG4 S228P, kappa, V domains shown)
VH: B2 VH with R19K, P41S, S80T, L81A, V95A
VL: B3 VL with G41E, Q100G, L104V
notes: Human IgG4 (S228P) / kappa, expressed in CHO cells; Signal peptides left out by range; also called VH1-VL4
Regarding B4, the binding result in assay [1] is “no binding (tested: <=0.2; 1 µg/well)”. Further, in assay [2], the Ka came out at 4.44e+08 M⁻¹, binding was put at a Kd of 2.25 nM, the koff is 0.00134 s⁻¹ and the kon amounted to 596000 M⁻¹ s⁻¹. In addition, in assay [3], the Ka amounted to 2.26e+08 M⁻¹; the affinity, expressed as Kd, was 4.42 nM; the koff was 0.000792 s⁻¹; the kon was found to be 179000 M⁻¹ s⁻¹.

B5: humanized R15E6 variant HC1LC2 (antibody, human IgG4 S228P, kappa, V domains shown)
VH: B2 VH with R19K, P41S, S80T, L81A, V95A
VL: B3 VL
notes: Human IgG4 (S228P) / kappa, expressed in CHO cells; Signal peptides left out by range; also called VH1-VL2
For B5, the binding result in assay [1] is given as “no binding (tested: <=0.2; 1 µg/well)”. Besides, in assay [2], the Ka worked out at 4.33e+08 M⁻¹; the affinity, expressed as Kd, was 2.31 nM; the koff amounted to 0.000947 s⁻¹; the kon stood at 410000 M⁻¹ s⁻¹. In addition, in assay [3], the Ka is 3.27e+08 M⁻¹; the affinity, expressed as Kd, was 3.06 nM; the dissociation rate constant (koff) came to 0.000769 s⁻¹; the kon was 251000 M⁻¹ s⁻¹.

B6: humanized R15E6 variant HC2LC4 (antibody, human IgG4 S228P, kappa, V domains shown)
VH: B2 VH
VL: B3 VL with G41E, Q100G, L104V
notes: Human IgG4 (S228P) / kappa, expressed in CHO cells; Signal peptides left out by range; also called VH2-VL4
Turning to B6, the binding result in assay [1] is reported as “no binding (tested: <=0.2; 1 µg/well)”. Further, in assay [2], the Ka came to 2.3e+09 M⁻¹, the Kd amounted to 0.436 nM, the koff was 0.000429 s⁻¹ and the kon came out at 986000 M⁻¹ s⁻¹. In addition, in assay [3], the Ka was determined as 7.72e+07 M⁻¹, the Kd came out at 13 nM, the koff was 0.000668 s⁻¹ and the kon was found to be 51500 M⁻¹ s⁻¹.

B7: humanized R15E6 variant HC2LC3 (antibody, human IgG4 S228P, kappa, V domains shown)
VH: B2 VH
VL: B2 VL with V2I, V3Q, S9F, F10S, R39K, E70D
notes: Human IgG4 (S228P) / kappa, expressed in CHO cells; Signal peptides left out by range; also called VH2-VL3
With B7, the binding result in assay [1] is on record as “no binding (tested: <=0.2; 1 µg/well)”. In assay [3], the Ka worked out at 3.36e+08 M⁻¹, the Kd worked out at 2.98 nM, the koff was found to be 0.000662 s⁻¹ and the kon was 222000 M⁻¹ s⁻¹.

B8: humanized R15E6 variant HC3LC4 (antibody, human IgG4 S228P, kappa, V domains shown)
VH: B2 VH with G16R, A23T, S80I, L81A
VL: B3 VL with G41E, Q100G, L104V
notes: Human IgG4 (S228P) / kappa, expressed in CHO cells; Signal peptides left out by range; also called VH3-VL4
B8: in assay [1], the binding result was “no binding (tested: <=0.2; 1 µg/well)”. Moreover, in assay [3], the Ka was 1.59e+08 M⁻¹, the Kd is 6.29 nM, the koff was 0.000887 s⁻¹ and the on-rate (kon) was 139000 M⁻¹ s⁻¹.

A word on the Kd: it is the equilibrium constant for the complex coming apart. High values mean a looser complex, low ones a tighter complex. What is called koff is the first-order rate constant of dissociation. Low readings indicate slow dissociation, high ones fast dissociation. As a reminder, the kon is the rate constant with which the complex forms. A higher kon goes with fast association.
